# Source: paper PMC8331139
# Assays:
# [1] = target: FCPII-S, trimeric fucoxanthin chlorophyll a/c protein antenna of PSII (Thalassiosira pseudonana (endogenous)); test: cryo-EM structure; cryo-electron tomography of unstacked thylakoid membrane vesicles with sub-volume averaging (EMAN2); complexes in situ in the membrane; 578 PSII and 374 PSI sub-volumes; resolution 4.2 nm (PSII) and 3.3 nm (PSI); densities assigned by rigid-body fitting of structures of other species
# [2] = target: PSII core complex of Thalassiosira pseudonana (dimeric core, C2) (Thalassiosira pseudonana (endogenous)) (UniProt A0T0N4); test: as above
Substance,stoichiometry N [1],stoichiometry N [2]
"FCPII-S, trimeric fucoxanthin chlorophyll a/c protein antenna of PSII (complex)",3,2
"PSII core complex of Thalassiosira pseudonana (dimeric core, C2) (from UniProt A0T0N4 1-38)",–,2
